{"source": "paper PMC4837482", "about": "“The complex binding mode of the peptide hormone H2 relaxin to its receptor RXFP1” (Nature Communications, 2016)", "molecules": {"B1": {"name": "RXFP1 G41A/D42A, full length (receptor)", "chain": "QDVKCSLGYFPCGNITKCLPQLLHCNGVDDCGNQADEDNCAANNGWSLQFDKYFASYYKMTSQYPFEAETPECLVGSVPVQCLCQGLELDCDETNLRAVPSVSSNVTAMSLQWNLIRKLPPDCFKNYHDLQKLYLQNNKITSISIYAFRGLNSLTKLYLSHNRITFLKPGVFEDLHRLEWLIIEDNHLSRISPPTFYGLNSLILLVLMNNVLTRLPDKPLCQHMPRLHWLDLEGNHIHNLRNLTFISCSNLTVLVMRKNKINHLNENTFAPLQKLDELDLGSNKIENLPPLIFKDLKELSQLNLSYNPIQKIQANQFDYLVKLKSLSLEGIEISNIQQRMFRPLMNLSHIYFKKFQYCGYAPHVRSCKPNTDGISSLENLLASIIQRVFVWVVSAVTCFGNIFVICMRPYIRSENKLYAMSIISLCCADCLMGIYLFVIGGFDLKFRGEYNKHAQLWMESTHCQLVGSLAILSTEVSVLLLTFLTLEKYICIVYPFRCVRPGKCRTITVLILIWITGFIVAFIPLSNKEFFKNYYGTNGVCFPLHSEDTESIGAQIYSVAIFLGINLAAFIIIVFSYGSMFYSVHQSAITATEIRNQVKKEMILAKRFFFIVFTDALCWIPIFVVKFLSLLQVEIPGTITSWVVIFILPINSALNPILYTLTTRPFKEMIHRFWYNYRQRKSMDSKGQKTYAPSFIWVEMWPLQEMPPELMKPDLFTYPCEMSLISQSTRLNSYS"}, "B2": {"name": "RXFP1 G45A/W46A, full length (receptor)", "chain": "B1 chain with A41G, A42D, G45A, W46A"}}, "key": {"RXFP1(1–72)": {"molecular_target": "T1, RXFP1(1–72) (Homo sapiens, UniProt Q9HBX9)", "T1 construct": "GB1 (N, cleaved yes); made in house; host or cells: E. coli BL21 (DE3) trxB", "T1 sequence (Q9HBX9 23-94 limits assumed)": "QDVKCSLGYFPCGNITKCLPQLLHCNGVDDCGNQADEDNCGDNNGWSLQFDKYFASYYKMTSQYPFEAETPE", "assay": "NMR competition titration against the RXFP1(1–72)/Mn2+-DTPA-(A)-H2 complex", "assay_type": "binding", "conditions": "50 μM peptide added to 50 μM 15N-RXFP1(1–72) with 0.2 μM Mn2+-DTPA-(A)-H2; pH 6.8, 25 °C", "protocol": "All RXFP1(1–72) protein samples for nuclear magnetic resonance (NMR) experiments were prepared from lyophilized protein in 50 mM imidazole, with 10 mM CaCl2 at pH 6.8. Recombinant human gene-2 H2 relaxin peptide was kindly provided by Corthera. EL1^(475–486)/EL2-GB1 samples were prepared as described above. Titrant and titrand were dialyzed in the same buffer in the same vessel. All NMR experiments were routinely collected at 25 °C on a 700-MHz Bruker Avance HDIII spectrometer equipped with triple resonance cryoprobe. […] Backbone assignments were made from 3D HNCACB, HNCOCACB, HNCO and HNCACO experiments. Spectra were processed using NMRPipe (ref. [43]) and typically Fourier-transformed after applying Lorentz-to-Gauss window functions in the direct dimension and cosine bells in the indirect dimensions. NMR data were analysed using SPARKY (Goddard, T.D. and Kneller, D.G., University of California, San Francisco). Assignments of the mutant RXFP1(1–72) proteins were determined from the assignments of wild-type RXFP1(1–72).\n^15N{^1H}-NOE experiments[45] (2,048 × 256 data points) were acquired with a saturation pulse of 4 s and an additional relaxation delay of 5 s. Sample conditions were 150 μM RXFP(1–72) or mutants either without or with 450 μM H2 relaxin. Binding to Mn^2+-DTPA-(A)-H2 to RXFP1(1–72) and mutants was monitored by recording 2D ^1H-^15N HSQC (2,048 × 256 data points) for 0.2 μM Mn^2+-DTPA-(A)-H2 against 50 μM RXFP1(1–72). H2 relaxin and its truncates such as A-chain (9–24), H2/I5 chimera and Phe23Ala A-chain mutant H2 were titrated into a complex of 50 μM RXFP1(1–72) and 0.2 μM Mn^2+-DTPA-(A)-H2 with increasing concentrations ranging from 5 to 50 μM."}, "RXFP1 [1]": {"molecular_target": "T2, RXFP1 (Homo sapiens, UniProt Q9HBX9)", "T2 construct": "transiently transfected human embryonic kidney (HEK) 293T cells expressing full-length RXFP1 and mutants; expressed in transfected cells; host or cells: HEK293T", "T2 sequence (Q9HBX9 1-757)": "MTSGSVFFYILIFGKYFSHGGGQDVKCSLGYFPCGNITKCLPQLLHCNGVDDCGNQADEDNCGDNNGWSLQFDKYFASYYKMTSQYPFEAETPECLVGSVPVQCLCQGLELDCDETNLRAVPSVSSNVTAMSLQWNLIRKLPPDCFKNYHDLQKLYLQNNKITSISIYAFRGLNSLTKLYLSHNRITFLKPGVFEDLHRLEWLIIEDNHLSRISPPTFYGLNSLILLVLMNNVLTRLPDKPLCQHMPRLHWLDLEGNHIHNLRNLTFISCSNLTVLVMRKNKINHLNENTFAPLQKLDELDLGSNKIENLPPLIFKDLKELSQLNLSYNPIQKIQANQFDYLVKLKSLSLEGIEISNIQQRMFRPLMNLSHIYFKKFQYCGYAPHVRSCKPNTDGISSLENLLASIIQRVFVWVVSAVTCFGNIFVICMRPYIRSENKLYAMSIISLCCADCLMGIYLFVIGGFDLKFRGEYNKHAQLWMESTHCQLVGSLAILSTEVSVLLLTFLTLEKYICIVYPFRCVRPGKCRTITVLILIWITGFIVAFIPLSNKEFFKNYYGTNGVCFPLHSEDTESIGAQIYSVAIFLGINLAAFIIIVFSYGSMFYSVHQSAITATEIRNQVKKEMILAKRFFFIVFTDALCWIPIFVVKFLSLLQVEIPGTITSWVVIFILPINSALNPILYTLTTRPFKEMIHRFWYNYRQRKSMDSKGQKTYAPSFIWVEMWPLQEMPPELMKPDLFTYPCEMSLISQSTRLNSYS", "conditions": "versus H2 relaxin; cited from earlier work"}, "RXFP1 [2]": {"molecular_target": "T2, RXFP1", "conditions": "versus H2 relaxin; cited from earlier work", "remark": "listed apart in the source"}, "[3]": {"molecular_target": "T3, Europium-labelled H2 relaxin (human, UniProt P04090 162-185; P04090 25-53, DTPA cage loaded with Eu^3+ on the N-terminus of the A-chain)", "T3 construct": "A chain of human gene-2 (H2) relaxin; numbers count on: the A chain; B chain of human gene-2 (H2) relaxin; numbers count on: the B chain; also called Eu-H2 relaxin; Eu-H2", "assay": "europium-labelled ligand saturation binding on cells (time-resolved fluorescence); HEK293T cells transiently transfected with receptor, 96-well plates; increasing Eu-H2 relaxin (maximum 15 nM) with or without 1 μM unlabelled H2 relaxin, 1 h, room temperature; 20 mM HEPES pH 7.5, 1.5 mM CaCl2, 50 mM NaCl, 0.01% NaN3, 1% BSA; one-site fit", "conditions": "one partner purified"}}, "note": "Numbering of substitutions follows the chain as printed. Names may count otherwise. “Also recorded” adds a separate entry of the source. Where no end group is shown, it is not given here.", "data": [{"molecule": "H2-(B5–29): B-chain truncate of H2 relaxin (EEVIKLCGRELVRAQIAICGMSTWS; ends and bridges not checked; cysteine pairing not given here; UniProt P04090 29-53, looked up, fragment)", "values": [{"measurement": "competition with Mn2+-DTPA-(A)-H2 for RXFP1(1–72) (peak intensities, chemical shifts)", "setting": "RXFP1(1–72)", "value": "did not detect any significant difference in binding"}, {"measurement": "affinity at RXFP1", "setting": "RXFP1 [1]", "value": "retain their native affinity and potency"}, {"measurement": "potency at RXFP1", "setting": "RXFP1 [2]", "value": "retain their native affinity and potency"}]}, {"molecule": "F23A: H2 relaxin mutant F23A; destabilizes the secondary structure of the A-chain (QLYSALANKCCHVGCTKRSLARAC; ends and bridges not checked; cysteine pairing not given here; UniProt P04090 162-185, looked up, variant F23A)", "values": [{"measurement": "competition with Mn2+-DTPA-(A)-H2 for RXFP1(1–72) (peak intensities, chemical shifts)", "setting": "RXFP1(1–72)", "value": "did not compete"}, {"measurement": "binding affinity for RXFP1", "setting": "RXFP1 [1]", "value": "significant loss"}, {"measurement": "activation of RXFP1", "setting": "RXFP1 [2]", "value": "significant loss"}]}, {"molecule": "H2/I5-2: A-chain H2 chimeric analogue; His12 and Val13 (H2) replaced by Thr12 and Asp13 (INSL5) (QLYSALANKCCTDGCTKRSLARFC; ends and bridges not checked; cysteine pairing not given here; UniProt P04090 162-185, looked up, variant H12T V13D)", "values": [{"measurement": "competition with Mn2+-DTPA-(A)-H2 for RXFP1(1–72) (peak intensities, chemical shifts)", "setting": "RXFP1(1–72)", "value": "no changes were observed in peak intensities or chemical shifts; also recorded: could not bind"}, {"measurement": "binding affinity for RXFP1", "setting": "RXFP1 [1]", "value": "modest loss of binding"}, {"measurement": "activation of RXFP1", "setting": "RXFP1 [2]", "value": "retains the ability to activate"}]}, {"molecule": "H2-(B1–25): B-chain truncate of H2 relaxin (DSWMEEVIKLCGRELVRAQIAICGM; ends and bridges not checked; cysteine pairing not given here; UniProt P04090 25-49, looked up, fragment)", "values": [{"measurement": "competition with Mn2+-DTPA-(A)-H2 for RXFP1(1–72) (peak intensities, chemical shifts)", "setting": "RXFP1(1–72)", "value": "did not detect any significant difference in binding"}, {"measurement": "affinity at RXFP1", "setting": "RXFP1 [1]", "value": "retain their native affinity and potency"}, {"measurement": "potency at RXFP1", "setting": "RXFP1 [2]", "value": "retain their native affinity and potency"}]}, {"molecule": "A-chain (9–24) H2: N-terminally truncated A-chain (9–24) H2 peptide (KCCHVGCTKRSLARFC; ends and bridges not checked; cysteine pairing not given here; UniProt P04090 170-185, looked up, fragment)", "values": [{"measurement": "competition with Mn2+-DTPA-(A)-H2 for RXFP1(1–72) (peak intensities, chemical shifts)", "setting": "RXFP1(1–72)", "value": "the gain in peak intensity was not as pronounced as that recorded with native H2 peptide"}, {"measurement": "affinity for RXFP1", "setting": "RXFP1 [1]", "value": "decreased"}, {"measurement": "potency for RXFP1", "setting": "RXFP1 [2]", "value": "decreased"}]}, {"molecule": "B1", "values": [{"measurement": "Kd", "setting": "[3]", "value": "> 20", "unit": "nM"}]}, {"molecule": "B2", "values": [{"measurement": "Kd", "setting": "[3]", "value": "> 20", "unit": "nM"}]}]}
